Patent publication US20210380703A1
Changes are numbered by the printed parent chain.

B1: 373_C10 (antibody, V domains shown)
VH: EVQLLESGGGLVQPGGSLRLSCAASGFTFSSYSMNWVRQAPGKGLEWVAGINYNGGYTSYADSVKGRFTISRDNSKNTLYLQMNSLRAEDTAVYYCARGANWHDTALDYWGQGTLVTVSS
VL: DIQMTQSPSSLSASVGDRVTITCRASQSILTYVNWYQQKPGKAPKLLIYAATSRASGVPSRFSGSGSGTDFTLTISSLQPEDFATYYCQQSYDNPLTFGGGTKVEIK
B2: 373_B05 (antibody, V domains shown)
VH: B1 VH with S31D, A49S, G50N, T58K
VL: B1 VL with L30V, V33L, L47V, D93S
B3: 373_A03 (antibody, V domains shown)
VH: B1 VH with S31D, G50N, S59G
VL: B1 VL with T31S, V33L, L47V
B4: 374_A09 (antibody, V domains shown)
VH: B1 VH with A49S, G50S, T58K, S59G, A106H
VL: B1 VL with R54L, N94S
B5: 373_A01 (antibody, V domains shown)
VH: B1 VH with S33G, A49S, G50N, S59G, A106H
VL: B1 VL with L30V, V33L, L47V, A51T, D93N, N94L
B6: 372_D03 (antibody, V domains shown)
VH: B1 VH with G55S, T58K
VL: B1 VL with T31S, L47V, A51V, A55H, N94S
B7: 368_A02 (antibody, V domains shown)
VH: B1 VH with S30D, S33G, T58K, G99A, A106H
VL: B1 VL with L30I, T31S, L47V, N94T
B8: 373_F11 (antibody, V domains shown)
VH: B1 VH with S30D, S33G, N35H, A49S, G55S, A106H
VL: B1 VL with L30V, T31S, D93N, N94L
B9: 373_B07 (antibody, V domains shown)
VH: B1 VH with S30D, A49S
VL: B1 VL with L47V, D93E, N94L
B10: 373_A09 (antibody, V domains shown)
VH: B1 VH with S30D
VL: B1 VL with V33L, R54L, N94T
B11: 372_B02 (antibody, V domains shown)
VH: B1 VH with A49S, G55S
VL: B1 VL with T31S, A51V, R54L, D93E, N94T
B12: 373_C03 (antibody, V domains shown)
VH: B1 VH with A49S, T58K
VL: B1 VL with L30V, V33L, L47V, N94S
B13: 373_A05 (antibody, V domains shown)
VH: B1 VH with S31D, A49S, G55S, T58K, A106H
VL: B1 VL with T31S, L47V, A55H, D93E, N94S
B14: 373_C07 (antibody, V domains shown)
VH: B1 VH with S30D, G55S, A106H
VL: B1 VL with V33L, L47V, D93E, N94T
B15: 372_G12 (antibody, V domains shown)
VH: B1 VH with S30D, S59G, A106H
VL: B1 VL with V33L, L47V, A55H, N94S
B16: 373_F12 (antibody, V domains shown)
VH: B1 VH with A49S, G50N, S59G
VL: B1 VL with L30S, V33L, L47V, D93E, N94T
B17: 373_E10 (antibody, V domains shown)
VH: B1 VH with S31D, A49S
VL: B1 VL with L47V, A55H, D93E, N94T
B18: 372_E01 (antibody, V domains shown)
VH: B1 VH with S30D, S31D, A49S, T58K, S59G
VL: B1 VL with L30V, T31S, V33L, L47V, A55H, N94S
B19: 367_H01 (antibody, V domains shown)
VH: B1 VH with S30D, S33G, A49S, T58K, G99A
VL: B1 VL with V33L, L47V
B20: 374_A06 (antibody, V domains shown)
VH: B1 VH with A49S, G50S, G55S, A106H
VL: B1 VL with T31S, V33L, L47V, N94S
B21: 371_H10 (antibody, V domains shown)
VH: B1 VH with G55S, T58K, A106H
VL: B1 VL with L30S, V33L, A55H, D93E
B22: 373_F08 (antibody, V domains shown)
VH: B1 VH with A49S
VL: B1 VL with V33L, N94T
B23: 373_H09 (antibody, V domains shown)
VH: B1 VH with S33G, G50S, G55S, T58K, A106H
VL: B1 VL with L30I, V33L, L47V, Y92D, N94S
B24: 373_A11 (antibody, V domains shown)
VH: B1 VH with S31N, S33G, G50N, S59G
VL: B1 VL with V33L, N94L
B25: 371_H08 (antibody, V domains shown)
VH: B1 VH with S33G, G50S, T58K, S59G, A106H
VL: B1 VL with L30I, T31S, L47V, A51V, N94T
B26: 373_D12 (antibody, V domains shown)
VH: B1 VH with S30D, A49S, G50S, G55S, T58K, S59G, A106H
VL: B1 VL with T31S, D93S, N94L
B27: 373_D03 (antibody, V domains shown)
VH: B1 VH with A49S
VL: B1 VL with L30V, T31S, V33L, R54L, N94T
B28: 373_H07 (antibody, V domains shown)
VH: B1 VH with A106H
VL: B1 VL with L30V, V33L, T52S, R54L, A55Q, N94S
B29: 373_H03 (antibody, V domains shown)
VH: B1 VH with A49S, G55S, T58K
VL: B1 VL with T31S, V33L, A51T, D93E
B30: 373_A12 (antibody, V domains shown)
VH: B1 VH with A49S, G50S
VL: B1 VL with V33L, L47V, N94T
B31: 373_G08 (antibody, V domains shown)
VH: B1 VH with S30D, A49S, G50N
VL: B1 VL with V33L, R54L, N94S
B32: 367_C01 (antibody, V domains shown)
VH: B1 VH with S30D, S31D, A49S, T58K, G99S, A106H
VL: B1 VL with V33L, L47V, A51T, R54L, A55H, N94T
B33: 367_G05 (antibody, V domains shown)
VH: B1 VH with S31D, S33G, G50N, G99S
VL: B1 VL with L30V, T31S, V33L, L47V, R54L, N94T
B34: 367_E04 (antibody, V domains shown)
VH: B1 VH with S31D, A49S, G50S, T58K, S59G, G99S, A106H
VL: B1 VL with T31S, V33L, D93E, N94S
B35: 367_H11 (antibody, V domains shown)
VH: B1 VH with S33G, T58K, S59G, G99S
VL: B1 VL with L30I, T31S, L47V, D93N, N94S
B36: 367_G10 (antibody, V domains shown)
VH: B1 VH with S30D, S31D, S33G, A49S, G99S
VL: B1 VL with L30I, T31S, N94S
B37: 368_A07 (antibody, V domains shown)
VH: B1 VH with G55S, G99S, A106H
VL: B1 VL with V33L, L47V, A51T, Y92N, D93E, N94L
B38: 368_A05 (antibody, V domains shown)
VH: B1 VH with G55S, S59G, G99S
VL: B1 VL with L30V, T31S, V33L, L47V, N94S
B39: 367_C05 (antibody, V domains shown)
VH: B1 VH with S30D, S31D, S33G, A49S, G50S, S59G, G99S, A106H
VL: B1 VL with T31S, L47V, A55H, N94L
B40: 367_F03 (antibody, V domains shown)
VH: B1 VH with G55S, T58K, G99S
VL: B1 VL with T31S, L47V, R54L, Y92D, N94T
B41: 367_E01 (antibody, V domains shown)
VH: B1 VH with S33G, T58K, G99S
VL: B1 VL with T31S, A51T, N94L
B42: 367_D10 (antibody, V domains shown)
VH: B1 VH with S30D, S33G, A49S, G50N, G99S
VL: B1 VL with L30I, T31S, V33L, L47V, N94T
B43: 367_E09 (antibody, V domains shown)
VH: B1 VH with S31D, S33G, G50S, G55S, T58K, S59G, G99S
VL: B1 VL with T31S, V33L, L47V, A51T, D93E, N94T
B44: 367_H06 (antibody, V domains shown)
VH: B1 VH with S33G, A49S, G50N, S59G, G99S, A106H
VL: B1 VL with L30I, V33L, N94T
B45: 368_A01 (antibody, V domains shown)
VH: B1 VH with S33G, A49S, G50N, G99S
VL: B1 VL with L30I, T31S, V33L, A55H
B46: 367_F07 (antibody, V domains shown)
VH: B1 VH with S30D, S33G, N35H, G50N, S59G, G99S
VL: B1 VL with L30I, T31S, D93E, N94T
B47: 367_G06 (antibody, V domains shown)
VH: B1 VH with S33G, A49S, G55S, T58K, G99S, A106H
VL: B1 VL with A51T, R54L, A55H, N94T
B48: 367_E11 (antibody, V domains shown)
VH: B1 VH with S30D, S33G, A49S, G50S, G55S, T58K, S59G, G99S, A106H
VL: B1 VL with L30V, T31S, L47V, A55H, N94T

What follows are binders tested against human Fc (human) (assay: ELISA, negative control).

In order of falling optical density:
1. B15  0.439 OD
2. B18  0.409 OD
3. B19  0.388 OD
4. B7  0.376 OD
5. B11  0.371 OD
6. B21  0.358 OD
7. B6  0.319 OD
8. B1  0.318 OD
9. B25  0.309 OD
10. B10  0.248 OD
11. B4  0.231 OD
12. B26  0.224 OD
13. B9  0.208 OD
14. B14  0.206 OD
15. B8  0.204 OD
16. B22  0.202 OD
17. B28  0.199 OD
18. B3  0.189 OD
19. B17  0.188 OD
20. B2  0.184 OD
21. B24  0.184 OD
22. B27  0.18 OD
23. B30  0.179 OD
24. B5  0.177 OD
25. B20  0.173 OD
26. B13  0.172 OD
27. B29  0.172 OD
28. B31  0.172 OD
29. B12  0.171 OD
30. B23  0.166 OD
31. B16  0.158 OD

The binders below were run against Human Fc (human) (assay: ELISA, negative control).

In order of rising optical density:
1. B46  0.242 OD
2. B48  0.244 OD
3. B43  0.249 OD
4. B42  0.251 OD
5. B39  0.255 OD
6. B37  0.261 OD
7. B47  0.28 OD
8. B33  0.283 OD
9. B34  0.284 OD
10. B38  0.285 OD
11. B36  0.286 OD
12. B40  0.301 OD
13. B44  0.313 OD
14. B35  0.323 OD
15. B32  0.348 OD
16. B41  0.351 OD
17. B45  0.396 OD
